Test results taken from US20200339678A1 (RIGEL PHARMACEUTICALS, published 2020).
Numbering of substitutions follows the chain as printed. Names and notes keep the numbering of the source.

B1: Ab40i4 (antibody, V domains shown)
VH: EVQLLESGGGLVQPGGSLRLSCAASGFTFSSYSMNWVRQAPGKGLEWVAGIKSSSGNKYYADSVKGRFTISRDNSKNTLYLQMNSLRAEDTAVYYCARGPYDVWMDYWGQGTLVTVSS
VL: not shown
B2: Ab40i5 (antibody, V domains shown)
VH: B1 VH
VL: not shown
B3: Ab48 (Fab, V domains shown)
VH: B1 VH with G50N, S55G, G56S, N57S, K58T, Y59S
VL: not shown
notes: clone from a phage library of monovalent human Fabs; also called clone Ab48
B4: Ab40i7 (antibody, V domains shown)
VH: B1 VH with S33G
VL: not shown
notes: mIgG2a of Ab40, Y52aS
B5: Ab117 (Fab, V domains shown)
VH: B1 VH with S33A, N35S, G50A, S55A, G56S, N57T, K58I, G99E, D102S
VL: not shown
notes: clone from a phage library of monovalent human Fabs; also called clone Ab117
B6: Ab32i1 (antibody, V domains shown)
VH: B1 VH with N35H, G50N, K52N, S54N, S55G, K58T, Y59G, G99V
VL: not shown
notes: hIgG1 of Ab32
B7: Ab15i2 (antibody, V domains shown)
VH: B1 VH with N35H, G50S, K52W, S54N, K58T, Y59G, G99V, V103Y
VL: not shown
notes: mIgG2a of Ab15
B8: Ab10i2 (antibody, V domains shown)
VH: B1 VH with G50Y, S54N, N57T, Y59G, V103Y, M105L
VL: not shown
notes: hIgG1 of Ab10
B9: Ab28i1 (antibody, V domains shown)
VH: B1 VH with N35H, G50N, K52N, S54N, S55G, K58T, Y59G, G99V
VL: not shown
notes: hIgG1 of Ab28
B10: Ab53i1 (antibody, V domains shown)
VH: B1 VH with N35H, G50S, G56S, M105L
VL: not shown
notes: mIgG2a of Ab53
B11: Ab53i4 (antibody, V domains shown)
VH: B1 VH with S33G, N35H, G50S, G56S, M105L
VL: not shown
notes: mIgG2a of Ab53, S33G
B12: Ab22i2 (antibody, V domains shown)
VH: B1 VH with N35H, G50S, S55G, N57S, G99V, V103Y
VL: not shown
notes: mIgG2a of Ab22
B13: Ab53i2 (antibody, V domains shown)
VH: B1 VH with N35H, G50S, G56S, M105L
VL: not shown
notes: hIgG1 of Ab53
B14: Ab22i1 (antibody, V domains shown)
VH: B1 VH with N35H, G50S, S55G, N57S, G99V, V103Y
VL: not shown
notes: hIgG1 of Ab22
B15: Ab48i1 (antibody, V domains shown)
VH: B1 VH with G50N, S55G, G56S, N57S, K58T, Y59S
VL: not shown
notes: hIgG1 of Ab48
B16: Ab53 (Fab, V domains shown)
VH: B1 VH with N35H, G50S, G56S, M105L
VL: not shown
B17: Ab15i1 (antibody, V domains shown)
VH: B1 VH with N35H, G50S, K52W, S54N, K58T, Y59G, G99V, V103Y
VL: not shown
notes: hIgG1 of Ab15
B18: Ab28i2 (antibody, V domains shown)
VH: B1 VH with N35H, G50N, K52N, S54N, S55G, K58T, Y59G, G99V
VL: not shown
notes: mIgG2a of Ab28
B19: Ab1 (Fab, V domains shown)
VH: EVQLLESGGGLVQPGGSLRLSCAASGFTFSSYAMHWVRQAPGKGLEWVSGISSNGGSTSYADSVKGRFTISRDNSKNTLYLQMNSLRAEDTAVYYCARVPYSVWIDYWGQGTLVTVSS
VL: not shown
notes: clone from a phage library of monovalent human Fabs; also called clone Ab1
B20: Ab48i2 (antibody, V domains shown)
VH: B1 VH with G50N, S55G, G56S, N57S, K58T, Y59S
VL: not shown
notes: mIgG2a of Ab48
B21: Ab53i3 (antibody, V domains shown)
VH: B1 VH with S33G, N35H, G50S, G56S, M105L
VL: not shown
notes: hIgG1 of Ab53, S33G
B22: Ab40 (Fab, V domains shown)
VH: B1 VH with S33G, S53Y
VL: not shown
notes: clone from a phage library of monovalent human Fabs; also called clone Ab40
B23: Ab40i6 (antibody, V domains shown)
VH: B1 VH with S33G
VL: not shown
notes: hIgG1 of Ab40, Y52aS
B24: Ab53i6 (antibody, V domains shown)
VH: B1 VH with S33G, N35H, G50S, S53Y, G56S, M105L
VL: not shown
B25: Ab40i3 (antibody, V domains shown)
VH: B1 VH with S53Y
VL: not shown
notes: mIgG2a of Ab40, G33S
B26: Ab53 (Fab, V domains shown)
VH: B1 VH with N35H, G50S, G56S, M105L
VL: not shown
notes: clone from a phage library of monovalent human Fabs; also called clone Ab53

Key:
[1] = target: T1, His-tagged recombinant Human TIGIT (human, UniProt Q495A1 22-141); assay: ELISA
T1 construct: coated antigen of the direct ELISA; not shown: His tag
T1 sequence (looked up): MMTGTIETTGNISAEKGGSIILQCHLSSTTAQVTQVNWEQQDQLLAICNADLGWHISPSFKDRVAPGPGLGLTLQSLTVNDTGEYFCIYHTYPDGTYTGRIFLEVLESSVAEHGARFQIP
Method: (§1) Binding affinities for antigen binding to anti-TIGIT monoclonal antibodies were determined by ELISA. […] Antibodies to be tested were diluted to 1 μM in PBS buffer containing 1% BSA and diluted 3-fold in a 10-point curve. […] Detection of the secondary antibody was determined using streptavidin-HRP and TMB reagent. All assays were performed at room temperature. Curve-fitting software was used to determine the EC₅₀ for each antibody.

[2] = target: T2, His-tagged recombinant Mouse TIGIT (mouse, UniProt P86176 29-148, limits assumed); assay: ELISA
T2 construct: coated antigen of the direct ELISA; not shown: His tag
T2 sequence (looked up): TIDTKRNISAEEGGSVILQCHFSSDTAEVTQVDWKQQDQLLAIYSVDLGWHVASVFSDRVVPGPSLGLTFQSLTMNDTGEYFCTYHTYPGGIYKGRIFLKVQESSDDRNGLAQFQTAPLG
Method: as §1

biotinylated human TIGIT [3] = target: T3, biotinylated human TIGIT (human, UniProt Q495A1 22-141, biotinylated (EZ-Link NHS-PEG4-biotin kit)); assay: comp. ELISA vs PVR
T3 construct: extracellular domain; also called TIGIT-ECD
T3 sequence (looked up): T1 sequence (looked up)
Method: (§2) Antibodies were serially diluted in a 10-point curve starting at 1 μM in 3-fold steps. […] Units are in microM.

mouse TIGIT-Fc [4] = target: T4, mouse TIGIT-Fc (mouse, UniProt P86176 29-148); assay: comp. ELISA vs PVR
T4 construct: extracellular domain; also called TIGIT-ECD; not shown: Fc
T4 sequence (looked up): T2 sequence (looked up)
Method: as §2

[5] = target: T5, human TIGIT fused to a beta galactosidase portion, on YTS cells (YTS_hTIGIT/hGrb2) (human, UniProt Q495A1 22-244); assay: cell-based or functional assay
T5 sequence (looked up): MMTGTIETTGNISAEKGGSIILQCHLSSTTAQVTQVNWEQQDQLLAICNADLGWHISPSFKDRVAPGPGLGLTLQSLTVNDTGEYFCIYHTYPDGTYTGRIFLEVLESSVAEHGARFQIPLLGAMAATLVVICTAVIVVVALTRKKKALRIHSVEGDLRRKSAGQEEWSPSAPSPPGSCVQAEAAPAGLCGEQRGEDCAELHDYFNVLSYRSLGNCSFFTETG

[6] = target: T6, human TIGIT fused to a beta galactosidase fragment, expressed on YTS cells (human, UniProt Q495A1 22-244); assay: cell-based or functional assay
T6 sequence (looked up): T5 sequence (looked up)

mouse TIGIT-Fc [7] = target: T7, mouse TIGIT-Fc (mouse, UniProt P86176 29-148); assay: competitive ELISA, mTIGIT-Fc to coated PVR
T7 construct: extracellular domain; also called mouse TIGIT extra cellular domain
T7 sequence (looked up): T2 sequence (looked up)
Method: as §2

biotinylated human TIGIT [8] = target: T8, biotinylated human TIGIT (human, UniProt Q495A1 22-141, biotinylated (EZ-Link NHS-PEG4-biotin kit)); assay: competitive ELISA, biotin-hTIGIT to coated PVR
T8 construct: extracellular domain; also called human TIGIT extra cellular domain; TIGIT-ECD
T8 sequence (looked up): T1 sequence (looked up)
Method: as §2

[9] = target: T6, human TIGIT fused to a beta …; assay: cell-based or functional assay; remark: listed apart in the source

Row | Binder | EC50 [1] [nM] | EC50 [2] [nM] | IC50 (biotinylated human TIGIT [3]) [nM] | IC50 (mouse TIGIT-Fc [4]) [nM] | YTS_hTIGI/hGrbs_EFC_Agonism, 221_WT [5] [µM] | YTS_hTIGI/hGrbs_EFC_Antagonism, 221_hPVR/ICAM [5] [µM] | EC50 of induced dimerization (YTS_hTIGIT/hTIGIT, 11 pt) [6] [nM] | IC50 (mouse TIGIT-Fc [7]) [nM] | IC50 (biotinylated human TIGIT [8]) [nM] | IC50 of inhibition of Grb2 recruitment (YTS_hTIGIT/hGrb2, 221_hPVR/ICAM, 11 pt) [9] [nM]
1 | B1 | 0.3 | 2.5 | 3 | 11.1 | 0.0007 | 1.63 |  |  |  | 
2 | B2 | 0.2 | 2.4 | 4.2 | 16.9 | 0.0358 | 0.238 |  |  |  | 
3 | B3 |  |  |  |  |  |  | 477 | 64.7 | 111 | 
4 | B4 | 0.2 | 7.6 | 3 | 121 | 0.0156 | 0.0163 |  |  |  | 
5 | B5 |  |  |  |  |  |  |  | 23.4 |  | 
6 | B6 | 0.4 | 2.5 | 1.1 | 1.4 |  | 0.069 |  |  |  | 
7 | B7 | 21.6 | 2.7 | 10.9 | 1.6 | > 1 | 0.275 |  |  |  | 
8 | B8 | 0.3 | 0.1 | 8.5 | 1.1 |  | 0.39 |  |  |  | 
9 | B9 | 0.4 | 2.7 | 1.2 | 1.3 |  | 0.0758 |  |  |  | 
10 | B10 | 0.3 | 0.4 | 1.6 | 4.2 |  | 0.0259 |  |  |  | 
11 | B11 | 1.1 | 4.6 | 6.7 | 48.2 | 0.0185 | 0.45 |  |  |  | 
12 | B12 | 1.8 | 0.2 | 38.3 | 2.6 | > 1 | > 1 |  |  |  | 
13 | B13 | 0.1 | 0.2 | 0.6 | 1.5 |  | 0.0675 |  |  |  | 
14 | B14 | 0.7 | 0.3 | 1.5 | 0.5 |  | 0.16 |  |  |  | 
15 | B15 | 0.2 | 0.2 | 1.9 | 1.5 |  | 0.0286 |  |  |  | 
16 | B16 | 4.3 | 7.6 | 9 | 35.3 |  | 0.0303 |  |  |  | 
17 | B17 | 4.8 | 2.3 | 2.2 | 1.2 | > 1 | > 1 |  |  |  | 
18 | B18 | 0.6 | 2.5 | 2 | 1.5 |  | 0.26 |  |  |  | 
19 | B19 |  |  |  |  |  |  |  | 632 | 89.9 | 
20 | B20 | 0.2 | 0.2 | 1.6 | 1.9 |  | 0.0068 |  |  |  | 
21 | B21 | 0.8 | 6.3 | 8.3 | 18.5 | 0.0042 | > 1 |  |  |  | 
22 | B22 |  |  |  |  |  |  | 9.5 | > 1000 | 3.8 | 2.3
23 | B23 | 0.3 | 37 | 2.7 | 78.8 | 0.0014 | 0.276 |  |  |  | 
24 | B24 | 0.2 | 32.3 | 1.7 | > 1000 | 0.0077 | 0.0363 |  |  |  | 
25 | B25 | 0.2 | 41 | 3.7 | > 1000 | 0.08 | 0.0098 |  |  |  | 
26 | B26 |  |  |  |  |  |  | 2.7 | 35.3 | 9 | 30.3
